Experiments:
[1] = test system: CCK2R positive tumors; conditions: athymic mouse model; cited from earlier work
Text: About 90% of medullary thyroid carcinomas (MTCs) express the transmembrane G protein–coupled cholecystokinin 2 receptor (CCK2R) at a high density, making CCK2R an interesting target for peptide receptor radionuclide therapy (PRRT). Recently, a new generation of radiolabeled minigastrin derivatives, targeting CCK2R, with improved and promising properties was introduced. First clinical trials explore the potential of such compounds for imaging and PRRT of CCK2R expressing tumors, in particular for MTC [3–5]. However, the reported tumor radiation doses were lower than those usuall ...

[2] = Bone marrow dosimetry; type: in vivo, humans; conditions: for Bone marrow dose: median
Description: (§1) Bone marrow and kidney dosimetry was performed as described before.

[3] = Dosimetry of stomach; type: in vivo, humans; conditions: for Stomach dose: gastric wall
Description: (§2) Planar whole-body scintigraphy and quantitative SPECT/CT acquisitions of neck/thorax/abdomen/pelvis were acquired with a hybrid SPECT/CT system (Siemens Intevo, Siemens Erlangen, Germany) at 1, 4, 24 and 72 h post injection (p.i.).
A conservative segmentation approach was adopted for gastric dosimetry to ensure that the VOI included all activity distributed in the gastric wall. TACs were analyzed in the same way as for the tumor dosimetry with a mono-exponential model. The average absorbed dose D in the gastric wall was then calculated by using D=N·E/m , where N is the total number of disintegrations, E the average energy deposited in tissue and m = 0.15 kg is the mass of the stomach wall.

[4] = In-vivo stability in blood (radio-HPLC of plasma, % intact peptide); set-up: species or system humans; conditions: for Stability (% of initial signal): in-vivo, plasma radio-HPLC
Description: Patients were allowed a light breakfast at the day of each infusion. […] Entresto® was given at an oral dose of 100 mg, containing 48.6 mg sacubitril and 51.4 mg valsartan 2 h before the start of one of the two infusions. Vital signs were recorded, and a 12-lead electrocardiogram was obtained before and after each injection. Adverse events were recorded and graded according to Common Terminology Criteria for Adverse Events (CTCAE) version 4.03.
Blood samples were collected in polypropylene tubes containing ethylenediaminetetraacetic acid at 5, 15, 30 and 60 min after administration of ^177Lu-PP-F11N. The tubes were placed on ice. Plasma was separated by centrifugation (4000 g for 10 min) and protein precipitation followed using cold methanol (v/v 1/2). The mixture was stirred to favor precipitation of proteins and then centrifuged at 4000 g for 10 min. The supernatant was collected and filtered through a […] filter (Millex®-GV, Merck Millipore, Bedford, MA, USA). The clear solution was diluted with H2O (1:1) and then analyzed by radio-high performance liquid chromatography (HPLC) to determine the percentage of intact peptide over time. HPLCs were performed on the Agilent 1260 infinity instrument (Agilent, Santa Clara, United States) connected to a GABI radioactivity-HPLC-flow-monitor γ-spectrometer (Elysia-raytest, Straubenhardt, Germany).

[5] = Dosimetry of kidneys; type: in vivo, humans; conditions: for Kidney dose: median
Description: as §2
Kidney dosimetry was performed using the dosimetry workflow in the DRT, which includes automatic organ segmentation, time activity curve modelling, and absorbed dose calculation using the medical internal radiation dosimetry (MIRD) method and voxel dosimetry.
After automatic organ segmentation in the 24 h SPECT images, the kidney VOIs were manually corrected to ensure accurate segmentation. Then, the SPECT images at 1, 4 and 72 h where manually co-registered to the 24 h images. Time activity curves were fitted to the measured kidney activity at the four time points using a single exponential function. The calculated and measured data were then used to estimate the absorbed dose in the kidneys using the MIRD method.
as §1

[6] = Entresto premedication, eight patients

CSCC[C@H](NC(=O)[C@H](Cc1c[nH]c2ccccc12)NC(=O)CNC(=O)[C@H](Cc1ccc(O)cc1)NC(=O)[C@H](C)NC(=O)[C@@H](CCC(=O)O)NC(=O)[C@@H](CCC(=O)O)NC(=O)[C@@H](CCC(=O)O)NC(=O)[C@@H](CCC(=O)O)NC(=O)[C@@H](CCC(=O)O)NC(=O)[C@@H](CCC(=O)O)NC(=O)CN1CCN(CC(=O)O)CCN(CC(=O)O)CCN(CC(=O)O)CC1)C(=O)N[C@@H](CC(=O)O)C(=O)N[C@@H](Cc1ccccc1)C(N)=O [[^177Lu]Lu-PP-F11N, [^177Lu]Lu-DOTA-(DGlu)6-Ala-Tyr-Gly-Trp-Met-Asp-Phe-NH2, metal not drawn]
Increase in tumor uptake on co-injection of phosphoramidon [1]: not significant | Increase in tumor uptake on co-injection of thiorphan [1]: only to a minor extent | Median absorbed dose of bone marrow after premedication compared to without [2, 6]: 1.4 fold | Bone marrow dose ([2]; with Entresto premedication): 0.05 Gy/GBq | Bone marrow dose ([2]; without Entresto premedication): 0.03 Gy/GBq | Median absorbed dose of stomach after premedication compared to without [3, 6]: 2.1 fold | Stomach dose ([3]; with Entresto premedication, median): 0.5 Gy/GBq | Stomach dose ([3]; without Entresto premedication, median): 0.2 Gy/GBq | Stomach dose ([3]; without Entresto premedication, patient 4): 0.23 Gy/GBq | Stomach dose ([3]; without Entresto premedication, patient 7): 0.17 Gy/GBq | Median stability with Entresto premedication compared to without ([4]; 5 min p.i.): 1.1 fold | Median stability with Entresto premedication compared to without ([4]; 15 min p.i.): 1.1 fold | Median stability with Entresto premedication compared to without ([4]; 30 min p.i.): 1.2 fold | Median stability with Entresto premedication compared to without ([4]; 60 min p.i.): 1.6 fold | Stability (% of initial signal) ([4]; 5 min p.i., with Entresto premedication (100 mg oral, 2 h before), median of patients): 99.5% | Stability (% of initial signal) ([4]; 5 min p.i., without Entresto premedication, median of patients): 94.1% | Stability (% of initial signal) ([4]; 15 min p.i., with Entresto premedication (100 mg oral, 2 h before), median of patients): 92.1% | Stability (% of initial signal) ([4]; 15 min p.i., without Entresto premedication, median of patients): 80.3% | Stability (% of initial signal) ([4]; 15 min p.i., without Entresto premedication, patient 1): 69.9% | Stability (% of initial signal) ([4]; 15 min p.i., without Entresto premedication, patient 2): 80.3% | Stability (% of initial signal) ([4]; 15 min p.i., without Entresto premedication, patient 3): 91.4% | Stability (% of initial signal) ([4]; 15 min p.i., without Entresto premedication, patient 4): 90.5% | Stability (% of initial signal) ([4]; 15 min p.i., without Entresto premedication, patient 5): 88.8% | Stability (% of initial signal) ([4]; 15 min p.i., without Entresto premedication, patient 6): 90.2% | Stability (% of initial signal) ([4]; 15 min p.i., without Entresto premedication, patient 7): 71.4% | Stability (% of initial signal) ([4]; 15 min p.i., without Entresto premedication, patient 8): 68.1% | Stability (% of initial signal) ([4]; 30 min p.i., with Entresto premedication (100 mg oral, 2 h before), median of patients): 78.5% | Stability (% of initial signal) ([4]; 30 min p.i., with Entresto premedication (100 mg oral, 2 h before), patient 1): 78.5% | Stability (% of initial signal) ([4]; 30 min p.i., with Entresto premedication (100 mg oral, 2 h before), patient 2): 85.7% | Stability (% of initial signal) ([4]; 30 min p.i., with Entresto premedication (100 mg oral, 2 h before), patient 3): 80.6% | Stability (% of initial signal) ([4]; 30 min p.i., with Entresto premedication (100 mg oral, 2 h before), patient 5): 85.5% | Stability (% of initial signal) ([4]; 30 min p.i., with Entresto premedication (100 mg oral, 2 h before), patient 6): 77.9% | Stability (% of initial signal) ([4]; 30 min p.i., with Entresto premedication (100 mg oral, 2 h before), patient 7): 75.3% | Stability (% of initial signal) ([4]; 30 min p.i., with Entresto premedication (100 mg oral, 2 h before), patient 8): 79.9% | Stability (% of initial signal) ([4]; 30 min p.i., without Entresto premedication, median of patients): 64.5% | Stability (% of initial signal) ([4]; 30 min p.i., without Entresto premedication, patient 1): 64.5% | Stability (% of initial signal) ([4]; 30 min p.i., without Entresto premedication, patient 2): 72.3% | Stability (% of initial signal) ([4]; 30 min p.i., without Entresto premedication, patient 3): 74.8% | Stability (% of initial signal) ([4]; 30 min p.i., without Entresto premedication, patient 4): 67.6% | Stability (% of initial signal) ([4]; 30 min p.i., without Entresto premedication, patient 6): 60.3% | Stability (% of initial signal) ([4]; 30 min p.i., without Entresto premedication, patient 7): 50.1% | Stability (% of initial signal) ([4]; 60 min p.i., with Entresto premedication (100 mg oral, 2 h before), median of patients): 64.15% | Stability (% of initial signal) ([4]; 60 min p.i., without Entresto premedication, median of patients): 41.1% | Median absorbed dose of kidneys after premedication compared to without [5, 6]: 2.4 fold | Kidney dose ([5]; with Entresto premedication): 0.11 Gy/GBq | Kidney dose ([5]; without Entresto premedication): 0.05 Gy/GBq

Reference: article PMC10998826 (EJNMMI Research, 2024)
